According to the DeepSol protein solubility set:

Test: soluble on expression in E. coli; label from the status in PepcDB or PDB records

Sequence: MATWTVHLEGGPRRVNHASIAVGSRIYSFGGYCSGEVTDAKDPLDVHVLNTENYRWIKMNPGYVYNNRIITKATIESPYSDSDKMFGAVPYQRYGHTVVEYQGKAYVWGGRNDDYGACNLLHEYDPEYNVWKKVEIEGFVPPSRDGHTAVVWNNQMFVFGGYEEDAQRFSQETYVFDFATSTWREMHTKNDPPRWRDFHTASVIDGMMYIFGGRSDESGQVGDEHLFHTIHDQYDDTLMALNLATGAWTRTKVPENTMKPGGRRSHSTWVYDGKMYMFGGYLGTINVHYNELYCFDPKTSMWSVISVRGTYPSARRRHCSVVSNGKVYLFGGTMPLPCHPLSTTNYNGMISPSGLADLSDLHVLDFAPSLKTLAMQSVLNELKVPSKGMFETLQNELAADIRFEMYCQVMPNVVSNGGSPRNDQAG
- soluble on expression in E. coli: not soluble

Sequence: GPDFNWTSVLNLTHNRNKIVALDGDIKQSVEGSWFIHKIGLPYNSFYVKEFAGVDPSTGKGLYYLNTQDEKGNYNREMTDDASKAQAIPYKSADPKISGGFTNILSYKWFDLGLTFTYSLGGYSFDKTGTLIETDGSKEKSYNLPVYALDRWQKPGDRTDVPRFVLEQGAGPQNSSRYIHSTDHIRLKNLTLGFTLPGRWVQKALIENARVYFSGSNLLTWAKWKQYDPEVPVNGEVFCEAPPMRTFNFGVEITF
- soluble on expression in E. coli: not soluble

Sequence: MIKGTGHMIVNIANDRGMSIDSIRKTIKESVLIAYKKYFGSNENAFIKFDDDTGDLSVYAKKKIVKEVKDSLLEILEKDISKENIVEGDYAYIEINPKVFDRLSIQVAKQRTKNDLQGIEDNEILSEFKSKLNKVVIGYVQQNRNGDLYVNLGNTDGIIPKKYQSPLEHHHHHH
- soluble on expression in E. coli: not soluble

Sequence: MGSDKIHHHHHHMKLNLAVFAYHLADYAPRLYDSEVHGLGIGDVRFIDRQETFLSESVYIGAWDKLQALIRPPSYVVCIGRDETTDRWLEKHGVKALILDSEVELNEVFERLQDIFQHYNRLESELLEAVLCKEPLNVLLNICAKFFANPTFITDAALCLVATCDNFAHPETDRAWQETIESGRSSSELLLLMKRKKLTNLLNTSRKAEFVNVGENYSKIICANYFDQEVRIATFTVSEAYTPLSPLQAGLVDHVAKLLTAEVRKQHKASSRYLFAIRSNISNLLHGQKIDGAILKTNFAHIGWTDQEDYRLLKIPLTAAELADGTAGHNRKIYESIFPHYVSLDLNEVLILVIRCARDTEADKRRFAELKKHLKNENAACGVSKTFHDFDMLGEEYKLANAALEIGSWKYPKEALYFYEDMMLEHLFSEGSRIFNLRSLCHDSVLRIAEHDQQNNSSLLQTLKVYLLQEKSLLAASQELHIHRNTLVYRLGKIEQISGLDLNSPLIRLQGILSCLILEYLNGLEEKAPD
- soluble on expression in E. coli: not soluble

Sequence: MKKGHHHHHHGSQYNPQVADLKAFSKHIYNAYLKNFNMTKKKARSILTGKASHTAPFVIHDIETLWQAEKGLVWKQLVNGLPPYKEISVHVFYRCQCTTVETVRELTEFAKSIPSFSSLFLNDQVTLLKYGVHEAIFAMLASIVNKDGLLVANGSGFVTREFLRSLRKPFSDIIEPKFEFAVKFNALELDDSDLALFIAAIILCGDRPGLMNVPRVEAIQDTILRALEFHLQANHPDAQYLFPKLLQKMADLRQLVTEHAQMMQRIKKTETETSLHPLLQEIYKDMY
- soluble on expression in E. coli: soluble

Sequence: WYKDRGVYHWLSSGQEGTDIPYLGSSVFCSELYEKQMELIRLQHQKLHETEAKLDARVTYMNQWVHQVKTPLSVINLIIQEEDEPVFEQIKKEVRQIEFGLETLLYSSRLDLFERDFKIEAVSLSELLQSVIQSYKRFFIQYRVYPKMNVCDDHQIYTDAKWLKFAIGQVVTNAVKYSAGKSDRLELNVFCDEDRTVLEVKDYGVGIPSQDIKRVFDPYYTGENGRRFQESTGIGLHLVKEITDKLNHTVDISSSPGEGTSVRFSFLTK
- soluble on expression in E. coli: not soluble

Sequence: MNLLVTSSLGVLLHLVVLCQADDHSELLVNTKSGKVMGTRVPVLSSHISAFLGIPFAEPPVGNMRFRRPEPKKPWSGVWNASTYPNNCQQYVDEQFPGFSGSEMWNPNREMSEDCLYLNIWVPSPRPKSTTVMVWIYGGGFYSGSSTLDVYNGKYLAYTEEVVLVSLSYRVGAFGFLALHGSQEAPGNVGLLDQRMALQWVHDNIQFFGGDPKTVTIFGESAGGASVGMHILSPGSRDLFRRAILQSGSPNCPWASVSVAEGRRRAVELGRNLNCNLNSDEELIHCLREKKPQELIDVEWNVLPFDSIFRFSFVPVIDGEFFPTSLESMLNSGNFKKTQILLGVNKDEGSFFLLYGAPGFSKDSESKISREDFMSGVKLSVPHANDLGLDAVTLQYTDWMDDNNGIKNRDGLDDIVGDHNVICPLMHFVNKYTKFGNGTYLYFFNHRASNLVWPEWMGVIHGYEIEFVFGLPLVKELNYTAEEEALSRRIMHYWATFAKTGNPNEPHSQESKWPLFTTKEQKFIDLNTEPMKVHQRLRVQMCVFWNQFLPKLLNATACDGELSSSGTSSSKGIIFYVLFSILYLIF
- soluble on expression in E. coli: soluble

Sequence: VGDFTYSISANLSDFTSKMGNLNGTQFLGNQVKMEGSEYNEWYGYVSDGLFLTQEDVDKSPKLNNSVKVGDIKYKDISGPDGVPDGVISPEYDRVLLGGSLPHYMFGLTFNAAYKGWDFGLTLQGVGSQKSQISAAMIEGLRDNWLNFPTILDGNYWSPKNTDEQNATAKYPRLTRTNRDANFCMSDYWLYNGRYIRLKNLSVGYTLPKAWTTKACMNTVRLYVSGSDLFTISNAPKGWDPEVSTEGYPITTSLIFGVSINF
- soluble on expression in E. coli: not soluble

Sequence: MFIDTSELCDLYAEQVDVVEPIFSSFGGVSNFYGKVTTVKCFESNGLIAEVLEENGEGRVLVIDGGGAVRRGLIDAELAQLAVDNGWEGIIVYGAVRQIQQLENLDIGIHALAPIPVSADESSAGESDIPVNFGGVTFFPEDYIYADLTGIILSQEPLDLEDLEHHHHHH
- soluble on expression in E. coli: not soluble

Sequence: MKGMKYHDYIWDLGGTLLDNYETSTAAFVETLALYGITQDHDSVYQALKVSTPFAIETFAPNLENFLEKYKENEARELEHPILFEGVSDLLEDISNQGGRHFLVSHRNDQVLEILEKTSIAAYFTEVVTSSSGFKRKPNPESMLYLREKYQISSGLVIGDRPIDIEAGQAAGLDTHLFTSIVNLRQVLDI
- soluble on expression in E. coli: soluble

Sequence: MSFFVNRIWYGNHFLQWILVPFSWLYRIVIRTRRWYLQRFCQQLYPIPIIVVGNVTVGGVGKTPLVIEIAKKIQQKGLKVGIVSRGYKAAIKHFPYEVKLNDSAELVGDEPLMMARKINCPVVIAPKRNEAVRYLLDKHSVEIIISDDGLQHYKMGRSIEIVVIDGMRKLGNGFCLPAGPLREPDSRLKQVDFVIVNQGAAEGTYSMELIPKNIVRLSTQEEVSNDLFTSEVAAVAGIGNPQRFYSTLSQLGIKFNPYSYPDHHQFKPHDLNDIDLPVIMTEKDAVKCYSFSSDKLYYLPVEAKLNDSFWEAFWSHQQLQGYYLEHHHHHH
- soluble on expression in E. coli: not soluble

Sequence: MGSDKIHHHHHHMPKITKIEVQKKNKERFNLFLDEQFEMGIDIDTLVKFNLKKGQQLEAADMAEIQKYDHYRIGLNKAIQYLSYKKRTEKEVIQYLQKEEISEQAISEVIEYCYREKLIDHQDYAESLKNTMIRTTDKGPKIYQQKLYQLGIEPNIIEIFTELYREQQELDDIIQIAEKISKTKKGPQNKVKEKVMQSLIQKGFEMETIHAVLNEMDFTQDEAVLDDLLQRDLEKIYNKNRKKYTQQKLISKTIEGLMRKGYKYDKIKAKLEESGIADGTEEIE
- soluble on expression in E. coli: not soluble

Sequence: MGSDKIHHHHHHVARRKEHTHEQIRHMAISAVVEHLQCHGVDNLSLRKVATTIGYVPSTLINIFGSYQYLLLAVSEQTLLQLAAQLQLIKPTTPTKTIEQMAIVYSQFALANRRCFRLVFELTMTDDQPLPAAHLGLIKSLFSDVEFQLSQYFPSACEQEVEMMSRVLWGGIHGLTCLSLDGKLFETQSCLQDMLTSHVSSYIDGMSIKRNSNAAN
- soluble on expression in E. coli: not soluble

Sequence: MAHHHHHHMPMILNEGWNIIQINLQEYTEKAFRTKYMETMDIQINASIRIRCIYFCDKLYNNDELKDEYKIFSKKKEKIKYTPPQCLNKPLKKMTIKSIITEGVSKGGENLPTEVEANKATTENEILEDSSTSGNSKKTDVEPTSQKNLQSIDMTEGIELYEESTDDPFFDEKNDGEGTPLAQVIGGEELLVGGEESTEVANNMTMDLTENTVTGTMNGPMKDQQDAEEAEHLAHIKTLEMDDTNVLYEDVNYETYNNDDH
- soluble on expression in E. coli: soluble

Sequence: MDSKILTMFNQGKHEEAIQAAVKAIDAAPDDPKRYAMLATMLISIKALDQAGELLAKARQLFPEDLELQYTAGLFAYAQADFAAAVSWFAKVRTDQTLKNDATYMLALSYQQAGQPTKALAFALTAHDLAPKQLDTALLAADLLMANDVFDAAARVLKPLLATEQPQVLFTYGMALSAAGKDGSHYLNKAKALDPKGYDQKANIVADINRFLRLQEGQDGHALEHHHHHH
- soluble on expression in E. coli: soluble

Sequence: MGLMHPRQLLTLPNGDVLVVEANSPGTVPITSPKQMIASIVKDRSGKGGKGGNRITLLRKAAGQSGKWEKYVFIENLHSPFGVQLIGDTLYVANTGNIMKYRYTPGETRMSDPGVEFTDLPSTVNHHWTKALLASPDGKKLYVGVGSNSNVAENGLDIEYRRATVLEVDVQSAASRIYASGIRNPTGLGWEPTTGKLWAIVNERDEIGADLVPDYLTSVQEGGFYGWPYSYYGQYVDQRVQPQRPDLVARAIRPDYALGSHVAPLGLWFYQGRNLPEKYHGGAFIGQHGSWNRIPLSGYDVVFVRFKDGKPEGVPEPVVTGFTSADQKTLKGAPVGLAEDAEGALLIADDVGNTIWRVTARGLEHHHHHH
- soluble on expression in E. coli: not soluble

Sequence: MNLFQNLALKYSHTMMEKSLQKGFNVELLKQPEEKIPKQDKSYMLYAHVPFCHTFCPYCSFHKYYYDENLAKVYFQNLREEIKIMKNKGFDFTSMYVGGGTTLIDEEELLKTLELCKKLFNIKEISCESDPNHIDPNKLSMFKGIIDRLSCGIQSFDDETLKKVARYNKFGSSKELQEKISKALGILPIFSIDLIFNLPGQNEKQLLNDLEIAKNLAPQQITTYPLMKSNLTKDNIAKSLGVSIKDNEFTYYQIIREFFKDYTQNNGWSFSLEKNKLNDEYVSSHHEYLGVGSGAFSFLDGELLINAFNLNDYAKFIQEKQNANIAKACFDKKEIIKYVFLTGIFSGKIEIDKFNKTLNCNLEKELFIELLGLKTSGAIIKDQNALIATEFGQYLFVVLMKDFYTGMDLVRAVFRDDKRLKNKDYIDIMKENIDPLNSASMEFKAETN
- soluble on expression in E. coli: not soluble

Sequence: MANKLTVLASVVAASSAMLSLSASAAESTLDKVLSQGFITCGVSTGLPGFSNPNAKGEWEGIDVEYCQAMAAAVLGDKTKVKFVPLTAKERFTALQSGEIDVLSRNTTWTLQRDSALGLNFVGVNYYDGQGFMVKKDLGVKSAKELNGASVCVQSGTTTELNLADYFRNSGMTYKPVVFDTAAQTSKGFDAGRCDVLTTDQSGLYALRLNLEKPDSAVVLPEIISKEPLGPVVRQDDDKWFNVAKWVLYAMVNAEEYGITSKNVDEMMKSDNPEVKRILGLDGPKGTGLGIRDDWSYQIVKQVGNYGESFDRTVGSGSPLKIDRGVNALWNAGGFMYAPPIR
- soluble on expression in E. coli: not soluble

Sequence: SMQEKYRLVVVGGGGVGKSALTIQFIQSYFVTDYDPTIEDSYTKQCVIDDRAARLDILDTAGQEEFGAMREQYMRTGEGFLLVFSVTDRGSFEEIYKFQRQILRVKDRDEFPMILIGNKADLDHQRQVTQEEGQQLARQLKVTYMEASAKIRMNVDQAFHELVRVIRKFQEQ
- soluble on expression in E. coli: soluble

Sequence: MRGSHHHHHHGSACVSKRRVVVTGLGMLSPVGNTVESTWKALLAGQSGISLIDHFDTSAYATKFAGLVKDFNCEDIISRKEQRKMDAFIQYGIVAGVQAMQDSGLEITEENATRIGAAIGSGIGGLGLIEENHTSLMNGGPRKISPFFVPSTIVNMVAGHLTIMYGLRGPSISIATACTSGVHNIGHAARIIAYGDADVMVAGGAEKASTPLGVGGFGAARALSTRNDNPQAASRPWDKERDGFVLGDGAGMLVLEEYEHAKKRGAKIYAELVGFGMSSDAYHMTSPPENGAGAALAMANALRDAGIEASQIGYVNAHGTSTPAGDKAEAQAVKTIFGEAASRVLVSSTKSMTGHLLGAAGAVESIYSILALRDQAVPPTINLDNPDEGCDLDFVPHEARQVSGMEYTLCNSFGFGGTNGSLIFKKI
- soluble on expression in E. coli: soluble
